From article PMC10157535, “Structural basis of phosphorylation-induced activation of the response regulator VbrR”

How the values were obtained:
[1] = molecular target: VbrR receiver domain (RD, 1-117) (Vibrio parahaemolyticus); assay: SEC-MALS; SEC-MALLS, Superdex-200 10/30, buffer A supplemented with 5.3 mM BeSO4, 35 mM NaF and 7 mM MgCl2 (BeF3-), 100 uL of ~10 mg/mL protein injected
[2] = molecular target: VbrR DNA-binding domain (DBD, 125-220) (Vibrio parahaemolyticus); assay: SEC-MALS; SEC-MALLS, Superdex-200 10/30, buffer A (20 mM Tris-HCl pH 8.0, 100 mM NaCl), 100 uL of ~10 mg/mL protein injected, 0.5 mL/min; no BeF3-
[3] = molecular target: full-length VbrR (response regulator VbrR from Vibrio parahaemolyticus) (Vibrio parahaemolyticus); assay: as above
[4] = molecular target: T1, VbrR (state not stated) (Vibrio parahaemolyticus, UniProt A0A0L8SKF9 1-220); assay: BLI; 10-160 uM DNA; text order of the two values (0.69, 0.77) matches 30 bp then 49 bp; BLI (Octet RED, biotinylated protein on streptavidin sensors), PBS: 10 mM phosphate pH 7.4, 2.7 mM KCl, 137 mM NaCl, 25 C; 1:1 fit; details: protein: recombinant, tags: N-terminal 6xHis, chain copies: 2
T1 sequence: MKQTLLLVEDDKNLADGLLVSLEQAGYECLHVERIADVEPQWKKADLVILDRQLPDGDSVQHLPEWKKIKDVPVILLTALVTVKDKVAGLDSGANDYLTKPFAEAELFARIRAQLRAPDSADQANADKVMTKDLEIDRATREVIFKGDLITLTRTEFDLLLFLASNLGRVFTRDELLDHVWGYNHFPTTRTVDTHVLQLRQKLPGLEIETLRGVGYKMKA

[5] = molecular target: T2, VbrR (monomer fraction) (Vibrio parahaemolyticus, UniProt A0A0L8SKF9 1-220); assay: crystal structure; 4.6 A; VbrR dimer on DNA; BLI (Octet RED, biotinylated protein on streptavidin sensors), PBS: 10 mM phosphate pH 7.4, 2.7 mM KCl, 137 mM NaCl, 25 C; 1:1 fit; details: protein: recombinant; tags: N-terminal 6xHis; biotinylated for BLI; chain copies: 2; blunt
T2 sequence: T1 sequence

[6] = molecular target: T3, VbrR DBD (monomer fraction) (Vibrio parahaemolyticus, UniProt A0A0L8SKF9 125-220); assay: BLI; DBD monomer; BLI (Octet RED, biotinylated protein on streptavidin sensors), PBS: 10 mM phosphate pH 7.4, 2.7 mM KCl, 137 mM NaCl, 25 C; 1:1 fit; details: protein: recombinant, tags: N-terminal 6xHis
T3 sequence: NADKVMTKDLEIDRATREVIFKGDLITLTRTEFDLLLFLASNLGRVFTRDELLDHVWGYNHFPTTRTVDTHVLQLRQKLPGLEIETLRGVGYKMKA

[7] = molecular target: T1, VbrR (state not stated); assay: BLI; 2.5-80 uM DNA; oligomeric state not stated; BLI (Octet RED, biotinylated protein on streptavidin sensors), PBS: 10 mM phosphate pH 7.4, 2.7 mM KCl, 137 mM NaCl, 25 C; 1:1 fit; details: protein: recombinant, tags: N-terminal 6xHis, chain copies: 2
[8] = molecular target: T2, VbrR (monomer fraction); assay: BLI; VbrR monomer; BLI (Octet RED, biotinylated protein on streptavidin sensors), PBS: 10 mM phosphate pH 7.4, 2.7 mM KCl, 137 mM NaCl, 25 C; 1:1 fit; details: protein: recombinant; tags: N-terminal 6xHis; biotinylated for BLI

VbrR receiver domain (RD, 1-117) (domain or fragment)
stoichiometry N [1]: 2

VbrR DNA-binding domain (DBD, 125-220) (domain or fragment)
stoichiometry N [2]: 2

full-length VbrR (response regulator VbrR from Vibrio parahaemolyticus) (natural protein)
stoichiometry N [3]: 2

B1: exsC promoter 30 bp (dsDNA)
DNA 1: AACACAATTCTAATTCTTCATCGCTTGTCG
DNA 2: CGACAAGCGATGAAGAATTAGAATTGTGTT
Kd [4]: 690 nM

B2: exsC promoter 26 bp (dsDNA)
DNA 1: CACAATTCTAATTCTTCATCGCTTGT
DNA 2: ACAAGCGATGAAGAATTAGAATTGTG
binding result [5]: binds

B3: exsC promoter 49 bp (dsDNA)
DNA 1: AACACAATTCTAATTCTTCATCGCTTGTCGATATAAACCAAAATCCCAC
DNA 2: GTGGGATTTTGGTTTATATCGACAAGCGATGAAGAATTAGAATTGTGTT
Kd [6]: 140 nM
Kd [7]: 770 nM
Kd [8]: 270 nM
